The nature of this data set: soluble on expression in E. coli; label from the status in PepcDB or PDB records.
For the sequence “MMINRINLTDIRSFVLIARLGNFTKAAETLDVSRSHVSRQISSLEKQMGVTLLIRTTRTLRLTEAGKHFYHQCEQALHTIDQALLSAVDDVEKVQGEIKINCVGGYLGEVFLADIVNTFMQQYPDVSISLDFSSNRVDLIEEEFDIAFRMGSLEDSGFVAKKLLDIEMGTLASPKYLQQYGRPSHPKELQQHHCLTGSVRKWHFQSLVNKEHYDVSIKGNLQCKNGRVLVAGAIAGNGIIRVPLIYCQQELDDKKLVQVFEEWGIPTVDFSAIYHRDRYQPKRIRTFIDFVKQYSDSLFT”, the “soluble on expression in E. coli” value is reported as “not soluble”. Consider “MGSSHHHHHHGKTIFVIVPTNEEQVAFLEALAKQDELNFDWQNPPTEPGQPVVILIPSDMVEWFLEMLKAKGIPFTVYVEEGGSENLYFQGGGGGGAATVTDLKNAIKNELYRIDIGMTDFYSSLSVSPTVQQQYCTAAITSRAAGLSLTMESLSSPYGVLATEYGFLIYKDTFVFGPSIKLIGASAWPNGTLTTDIQSGRHILVPYLTNTVVFVTGVIENEDGRQNILPMMRLMMVDSYLCAHMHMNVANLYRKTFRTAFAELA”, for which the “soluble on expression in E. coli” value is on record as “not soluble”. Take “MANGKSKNTKKDGVDKKKTSKTKKKSNLSISKSQTSVDMNEKDKSKEAKEAKELKEKKAKEEAEKKVVATPKKDASKDQAKKEEDPNKQNEPSGMDVLVKEDGKKTKMDDGYEDFGPGAGAAQ”: the “soluble on expression in E. coli” value was “not soluble”. On to “GMNRLRTSFQQTTGQISGHGKRNVGVLKTAFAAVADEMASDQYGTGAIIEPFEQKFADVLGMDDAVFFPSGTMAQQVALRIWSDETDNRTVAYHPLCHLEIHEQDGLKELHPIETILVGAADRLMTLDEIKALPDIACLLLELPQREIGGVAPAFSELETISRYCRERGIRLHLDGARLFEMLPYYEKTAAEIAGLFDSIYISFYKGLGGIAGAILAGPAAFCQTARIWKRRYGGDLISLYPYIVSADYYYELRKDRMGQYYEQAKQLAEQFNALPGVHTTPEVPVSNMFHLHFDGQAADISPKLEQVQEETGLGFVGYLVDKDGYCSTEISVGDAYGELDQQTRDAGFARLRQAFS”, for which the “soluble on expression in E. coli” value is “soluble”.

Regarding “MNEDAWNKETYSAWVKRFGTPDTAAKKISKDPSKILSVLHEKLGDVKGKKIMNIMGSNGSKAVALALLGADVTVVDFSKGNMDYALDLAKEADVKIDYILSDILKLPEDKLTADYDIVFAEMGIIHYFIDLKPFIKTINRLLKEGGLFVLRDFHPVSTKLITSRGSTAKVRKHKVTGDYFDTSLEEKDAAFSKYLIDNKEPEKVLLRKWTLGEIVTSVAEGGFKIKKLDEEPNLSCDNFDKGIPKSFTLTSEKLSLEHHHHHH”, the “soluble on expression in E. coli” value is “soluble”. Next, “ITFEIAGDKLLMTLVPERLRGETASFDIEANGKVYVERGRRITARHIKALEKDNISQVVVPSEYILGKVASKDYVDLESGEIICPANGEISLETLAKLAQAG”: “not soluble”; “MGSDKIHHHHHHMFLDGEEGLIGYIIVTGTAGAGKSSLVGALADRITSLGANVATLNLDPAAEKLPYDPSVDARDYVSVAELMDKGLGPNGALVAAVDSLINHVLDIREEIDYYSPDYVVVDTPGQLELFAYRVGGPLVLRGIMGDYNGVNIFLIDSIFIDNAISLVSALLLASSVAVRLGLPQVNAVSKADMLLPEVREEVIPRLGEPGFLEFLLEKDKTYEGAGKALAEELARAIETTGFIGEVLQASVLEPETVTLLAAKAQQILAGGDDYKIYDITGQ”: “not soluble”. For the sequence “MSPQYDAIIVGGGHNGLTCGAYLARAGVKVLVVERQPMVGGAAVTGEIAPGYRSSLASYYQGLLQPKVILDLELQKYGFEVIPAAPTVFALEGGRTFTLWDDPEKFAAEIAKFSNVDGAAYAGYRAHMLKIAPHMKQLLWEVPVDPASGKIRDLKRLAGFVWRFRKVGPQFYDIYNLLTMSAWDYLSRWFTSDEVKLVLGFFAGGGGANSSLKTPGSAYMLARGIVRDGGTAAGPAGFMKGGMGAISEAIRRSGEAHGMEVRTACPVERILVENGRAVGVRLEGGEEIRSKIVIANATARTTFTKLLDPAELPEEFNRDIRNIRCESTVFRVNLALSALPEAPVFGQTNPQGSIVPQMTVAPNVAYMERAWHQAQGGEIAEAPFLIVKVPSMVDPTLAPEGHHIMNVFGGHAPYTLARGDWDSRREELWGRVLAVLKTQFPDIESRILHRQIMTPLDLERIFDLPNGHVHHGEISADQMFFRRPSPQFADYRSPVDRLYQASASVHPGGGVTGVPGHNAAKVILEDRRKWSLEHHHHHH”, the “soluble on expression in E. coli” value is “soluble”. The result for “MTAETNYFWLNCGYNRWNHNEPLVGQTALFESGAHFNPSQGFRAFKKAKVGDQVIFYQVQTDTGLLGCGEIISVETGAQNKIRVQFRFNEQLKPLTADYLKRSEALEFRMSNMKETLFNQITAEEFDLISGLGKGEIKIPRYFFLAETEEFEPGNQYTIYTHTYNGIKRNGYHFYTQLEEGDNIIFYNRTKNQSVVGIGEVSKHIHEKPPIPGRTNSTVIEVSYEKDITPITLSTLNKHPKLKNLYFLQENAKQAIASMSQAQYDAIIEMSDNNGLKSPFEMVKKPDMLESEKEEALKPFILLVVDRKEEGLKAANDLLQKANANPVITTGHPDFSEDMLYGKYLPNETGALYYREGFITQLMPKKDKSYLVIDNFNRIDTDIFQTYINVLEGYEVTLPRYNKDGNMIKWSRQKDSFYYFNPNWHIVGITYDSLEEIKEKYSEQFLKYTRIVKVKHD” reads “not soluble”. For the sequence “MGSDKIHHHHHHMKLSINKNTLESAVILCNAYVEKKDSSTITSHLFFHADEDKLLIKASDYEIGINYKIKKIRVESSGFATANAKSIADVIKSLNNEEVVLETIDNFLFVRQKSTKYKLPMFNHEDFPNFPNTEGKNQFDIDSSDLSRSLKKILPSIDTNNPKYSLNGAFLDIKTDKINFVGTDTKRLAIYTLEKANNQEFSFSIPKKAIMEMQKLFYEKIEIFYDQNMLIAKNENFEFFTKLINDKFPDYEKVIPKTFKQELSFSTEDFIDSLKKISVVTEKMRLHFNKDKIIFEGISLDNMEAKTELEIQTGVSEEFNLTIKIKHLLDFLTSIEEEKFTLSVNEPNSAFIVKSQGLSMIIMPMIL”, the “soluble on expression in E. coli” value was “not soluble”.

Regarding “MGSDKIHHHHHHMSTLENVHASPIHFMSKPAEIEHTQRPLNEASHAPGYIYGDPDVLRREKERIFMKDWLCIAHVDELPNPGDFVTHTVIDEPVLIVRNRSGVLQAFYNQCRHRGVEVAEGRGNAKIFKCPYHAWSYDLDGKLIGVPFMKEAQGFDQKNCSLKPVRLDTWGGFIHISFDPDAEPLSSYMAEYEQEFGMLRQGELRLGLRWETDFDCNWKFVYENLMDIYHVGVTHADTIGRYQDQSSYRYLQLPRGRASIHYRAKTMSETGSSLFGRLPWIDDDSFARIGYLPPNLTMLARCDYVRPVTHWPTAVNRTHSVAYFLFPEDKIADPQFQEKIQTYVKFVEQVLDEDRGMILSLQRAMNTRGFEPGRMSFMENAIHHALGYHLERLFGPQSA”, the “soluble on expression in E. coli” value is “not soluble”. The result for “MAHHHHHHMSSESYAIGQEELVYDRMFRVMRTVGEMMRDRKYQVPSSIIPETVGQFCEQYVDREGRRIYRERMTVPCERVGGTHRSRAMVFFASELGMEGMKGYCQTAMDANCERVIIVTHGKVNATVKRYVDCINRSGTGQKVQLFDEDDLVVNITHHELVPKHTQLEDEEVKEMLEAHSLELNMLPRILSTDPVAAYLGLERGRVVRIERKSVSAGFYVTYRQVV” reads “not soluble”. Turning to “MTDTRVLAVANQKGGVAKTTTVASLGAAMVEKGRRVLLVDLDPQGCLTFSLGQDPDKLPVSVHEVLLGEVEPNAVLVTTMEGMTLLPANIDLAGAEAMLLMRAGREYALKRALAKFSDRFDVVIIDCPPSLGVLTLNGLTAADKAIVPLQCEMLAHRGVGQFLRTVADVQQITNPNLRLLGALPTLYDSRTTHTRDVLLDVADRYDLQVLAPPIPRTVRFAEASASGSSVMAGRKNKGAVAYRELAQALLKHWKTGRPLPTFTVDL”, the “soluble on expression in E. coli” value was “soluble”.

For “MAGKQITLASLPIGKKARVKSLTLDGTIRRRIMDLGLVSDTIVEALQKSPSGDPTAYHIRGAVIALRSEEASKIMVEVN”, the “soluble on expression in E. coli” value is recorded as “not soluble”. For the sequence “MLKKHLTTQLFQKKKKKKLHLVLDLDHTLLHSVLVSDLSKREKYLLEETDSRQDLWRRNVDGYEFIIKLRPFLHEFLLEANKLFTMHVYTMGSSSYAKQVLKLIDPDKVYFGKRVITREASPFNKSLDLLAADKRRVVIVDDTVHVWPFHKRNLLQITKYVYFKVDGTKWDSYAEAKKDESQSNGSLANVLKFLEDVHKRFEEDLGFKDLRLLIPCRQCCY”, the “soluble on expression in E. coli” value is recorded as “soluble”. On to “QLDGLDVYVAGKADVNFLFDRYISTKTELRSTTYSNYLYTWNHFIRDTFGKKKVRDVKYSDVLFFYTDLINNQGLQINTLETINTVLRPTFQLAVRDDIIRKNPVDGAYCEVKKRNGGARKTRRALTVDQQRKFMEYVAKNPFFYHWYPFFVFLLGTGCRIGEAIGIRWDDIDLENRIIDINHSLTYYQRADDSYKCEFRVSLPKTEAGNRRIPMMQQVYDVLQEEYERQKQEGFCVENVDGMTNFVFTNRFGMPHNPAAVNRAIKR”, for which the “soluble on expression in E. coli” value is recorded as “not soluble”. As to “MGSDKIHHHHHHMRIPPLKAIIAFESVARTKSVNRAAEELGLTASAVSHQLSNLESQIGQPLFQRSGRGLVLTPTGERYLTDVTGSLADLSRATERASSRTEVDILRVHSSPSFGLMWLLPRLSSFQEANGDIELNLACSYENVSFSNGFYDIDVRHGYGNWDNLEVRTVRGEFIAPLASPQYLERHPVKAPEDLLAHRLIYSETPLVQWKQWFGRAGVSLAAQKTFDFSFDRSYMSLETAALGLGIALESLMLASVKIREGLLVPVFDATHAVEVGAHHLVYPRQNAELPRVKRFLAWIEREVAGHGRAS”, the “soluble on expression in E. coli” value is on record as “not soluble”. On to “MAHHHHHHMSSDYSRVCAAEKASESHPPGYSRDALETELREGFRKQQQQVNKNRQVEQMALAKGLGESATTSLKDGFYIPHKVLPPLKPEEKKLFERIDIMKWCGRAGRKLEDSAVAPPPTLGEVPAEHQPMQVQEHQASTEADAEDALSTSVSSTASSLAALKDNSSEDVRHLLHQLRSTSRATSSLRDARAEVDDNIQAVEEALLRQSSPLSFEDLLDTAARLLAAMERGELTEDVVVPRGADVSTEKDEGSPGSPADSAEAPLSASGSTTRVLHGAVEVETYTRKHLLPRAYQVVAIAHTAEWILQYTMAYLRTTVAVNQDEAFTRLTLLARCVRLLGDIENFSSILLSLETKCEEYAGFAALKDTAEKHLGTLLDDVETSLDAILSAPFPSRRSRLLLLEGGIQKKLQRALLFLNEIDYSWTPHVRFHWAWKVQLLSASFHRIHGLISRKHMQCSMGFVDDSLYERVADTRITGRYMGASPVQPKVLRAQQVEYEKITEGLTFQQIGMSIKGVASLLIGEQLCMGARYILCQSTKQFDPVWGFHMDEISTAPTQEELSAMAAKIAVHAKEQLTARPTIARKEHSSSTFLTQM”, for which the “soluble on expression in E. coli” value was “not soluble”. The result for “GPQMLSANERLKNNFNILYNQIRQYPAYYFKVASNVPTYSDICQSFSVMYQGFQIVNHSGDVFIHACRENPQSKGDFVGDKFHISIAREQVPLAFQILSGLLFSEDSPIDKWKITDMNRVSQQSRVGIGAQFTLYVKSDQECSQYSALLLHKIRQFIMCLESNLLRSKIAPGEYPASDVRPEDWKYVSYRNELRSDRDGSERQEQMLREEPFYRLMIE” reads “soluble”; that for “MGSDKIHHHHHHADGRYIEVTGTSEIEIVPDRIHYIIEIREYFEEEFDGRSKPEEYRTKISLDRIEQGLREVLHDAGISPNAVRTQEIGDYWRKQGQDFLVAKTFDITLLDFKQIDEILKRMDTKGIHTMRIGELENKDMLSYHQKGKIAALKAAQRKASYLVEALGKKLGPVIRIVEDEAGSSLPFSQSNVLSSSVVSFDSFRTIKKKYSMLVRFEIAD”, “not soluble”. As to “AVANILNRDYNRAQEILNGIKNPDATTYYLMAVVAARTNNLDVVINSLRESISLDSSMMKKAATDLEFAKYANDGGFKSLLRH”, the “soluble on expression in E. coli” value is “not soluble”.

Values taken from the DeepSol protein solubility set.
